{
  "source": "paper PMC7642358",
  "about": "(Nature Communications, 2020)",
  "data": [
    {"target": "SARS-CoV-2 spike receptor-binding domain (2019-nCoV RBD-SD1, residues 319–566) (SARS-CoV-2, UniProt P0DTC2)", "values": [
      {"binder": "29 (VHH) VHH: QVQLVESGGGLVQAGGSLRLSCAASGFPVHYTYMRWYRQAPGKEREWVAAIKSYGQHTTYADSVKGRFTISRDNAKNTVYLQMNSLKPEDTAVYYCEVVGETYRGQGTQVTVS", "binding result": "binds"},
      {"binder": "22 (VHH) VHH: QVQLVESGGGLVQAGGSLRLSCAASGFPVNHYEMEWYRQAPGREREWVAAIMDSTGYETAYADSVKGRFTISRDNAKNTVYLQMNSLKPEDTAVYYCYVYVGASYIGQGTQVTVS", "binding result": "binds"},
      {"binder": "Sybody 6 (VHH) VHH: QVQLVESGGGLVQAGGSLRLSCAASGFPVNHTRMYWYRQAPGKEREWVAAIQSHGQNTFYADSVKGRFTISRDNAKNTVYLQMNSLKPEDTAVYYCYVWVGNQYWGQGTQVTVS", "binding result": "binds"},
      {"binder": "Sybody 11 (VHH) VHH: QVQLVESGGGLVQAGGSLRLSCAASGFPVRTENMHWYRQAPGKEREWVAAIYSFGATMLYADSVKGRFTISRDNAKNTVYLQMNSLKPEDTAVYYCAVNVGEWYEGQGTQVTVS", "binding result": "binds"},
      {"binder": "Sybody 2 (VHH) VHH: QVQLVESGGGLVQAGGSLRLSCAASGFPVSNEEMTWYRQAPGKEREWVAAIASNGNQTEYADSVKGRFTISRDNAKNTVYLQMNSLKPEDTAVYYCYVYVGASYIGQGTQVTVS", "binding result": "binds"},
      {"binder": "Sybody 17 (VHH) VHH: QVQLVESGGGLVQAGGSLRLSCAASGFPVKASEMEWYRQAPGKEREWVAAIASIGYNTYYADSVKGRFTISRDNAKNTVYLQMNSLKPEDTAVYYCLVYVGATYIGQGTQVTVS", "binding result": "binds"},
      {"binder": "19 (VHH) VHH: QVQLVESGGGLVQAGGSLRLSCAASGFPVYNEEMTWYRQAPGKEREWVAAIASYGRLTEYADSVKGRFTISRDNAKNTVYLQMNSLKPEDTAVYYCYVYVGQSYIGQGTQVTVS", "binding result": "binds"},
      {"binder": "Sybody 10 (VHH) VHH: QVQLVESGGGLVQAGGSLRLSCAASGFPVESAEMEWYRQAPGKEREWVAAITSQGTITEYADSVKGRFTISRDNAKNTVYLQMNSLKPEDTAVYYCYVYVGASYIGQGTQVTVS", "binding result": "binds"},
      {"binder": "25 (VHH) VHH: QVQLVESGGGLVQAGGSLRLSCAASGFPVESTEMTWYRQAPGKEREWVAAIESEGHGTEYADSVKGRFTISRDNAKNTVYLQMNSLKPEDTAVYYCYVYVGAGYIGQGTQVTVS", "binding result": "binds"},
      {"binder": "Sybody 3 (VHH) VHH: QVQLVESGGGLVQAGGSLRLSCAASGFPVSHTEMTWYRQAPGKEREWVAAIESQGVYTHYADSVKGRFTISRDNAKNTVYLQMNSLKPDDTAVYYCYVYVGGGYIGQGTQVTVS", "binding result": "binds"},
      {"binder": "27 (VHH) VHH: QVQLVESGGGLVQAGGSLRLSCAASGFPVKASEMVWYRQAPGKEREWVAAILSQGHATEYADSVKGRFTISRDNAKNTVYLQMNSLKPEDTAVYYCYVWVGRSYIGQGTQVTVS", "binding result": "binds"},
      {"binder": "Sybody 5 (VHH) VHH: QVQLVESGGGLVQAGGSLRLSCAASGFPVAQQEMTWYRQAPGKEREWVAAISSIGSITHYADSVKGRFTISRDNAKNTVYLQMNSLKPEDTAVYYCYVYVGASYIGQGTQVTVS", "binding result": "binds"},
      {"binder": "31 (VHH) VHH: QVQLVESGGGLVQAGGSLRLSCAASGFPVWSAEMTWYRQAPGKEREWVAAINSHGRITEYADSVKGRFTISRDNAKNTVYLQMNGLKPEDTAVYYCYVYVGKSYIGQGTQVTVS", "binding result": "binds"},
      {"binder": "35 (VHH) VHH: QVQLVESGGGLVQAGGSLRLSCAASGFPVNYTIMFWYRQAPGKEREWVAAIKSTGEHTLYADSVKGRFTISRDNAKNTVYLQMNSLKPEDTAVYYCNVKDAGQGWQEYDYWGQGTQVTVS", "binding result": "binds"},
      {"binder": "36 (VHH) VHH: QVQLVESGGGLVQAGGSLRLSCAASGFPVEWKHMTWYRQAPGKEREWVAAIASTGAYTHYADSVKGRFTISRDNAKNTVYLQMNSLKPEDTAVYYCNVKDWGSKTTYYDYWGQGTQVTVS", "binding result": "binds"},
      {"binder": "38 (VHH) VHH: QVQLVESGGGLVQAGGSLRLSCAASGFPVYWAHMTWYRQAPGKEREWVAAIVSSGAYTAYADSVKGRFTISRDNAKNTVYLQMNSLKPEDTAVYYCNVKDFGTQEHYYDYWGQGTQVTVS", "binding result": "binds"},
      {"binder": "Sybody 13 (VHH) VHH: QVQLVESGGGLVQAGGSLRLSCAASGFPVENYYMRWYRQAPGKEREWVAAIESSGAETRYADSVKGRFTISRDNAKNTVYLQMNSLKPEDTAVYYCYVVVGWGYAGQGTQVTVS", "binding result": "binds"},
      {"binder": "Sybody 15 (VHH) VHH: QVQLVESGGGLVQAGGSLRLSCAASGFPVYEHYMRWYRQAPGKEREWVAAIQSHGNHTAYADSVKGRFTISRDNAKNTVYLQMNSLKPEDTAVYYCFVVVGNGYTGQGTQVTVS", "binding result": "binds"},
      {"binder": "Sybody 8 (VHH) VHH: QVQLVESGGGLVQAGGSLRLSCAASGFPVKSYEMEWYRQAPGKEREWVAAISSYGEYTEYADSVKGRFTISRDNAKNTVYLQMNSLKPEDTAVYYCYVWVGDSYLGQGTQVTVS", "binding result": "binds"},
      {"binder": "37 (VHH) VHH: QVQLVESGGGLVQAGGSLRLSCAASGFPVYNTWMEWYRQAPGKEREWVAAITSYGFHTYYADSVKGRFTISRDNAKNTVYLQMNSLKPEDTAVYYCNVKDEGNTTAYYDYWGQGTQVTVS", "binding result": "binds"},
      {"binder": "39 (VHH) VHH: QVQLVESGGGPVQAGGSLRLSCAASGFPVMWSHMHWYRQAPGKEREWVAAIVSYGAYTIYADSVKGRFTISRDNAKNTVYLQMNSLKPEDTAVYYCNVKDFGGYRYYYDYWGQGTQVTVS", "binding result": "binds"},
      {"binder": "Sybody 9 (VHH) VHH: QVQLVESGGGLVQAGGSLRLSCAASGFPVGQQHMYWYRQAPGKEREWVAAIYSYGHITKYADSVKGRFTISRDNAKNTVYLQMNSLKPEDTAVYYCWVYVGDYYEGQGTQVTVS", "binding result": "binds"},
      {"binder": "Sybody 1 (VHH) VHH: QVQLVESGGGLVQAGGSLRLSCAASGFPVNTSEMAWYRQAPGKEREWVAAIESSGDETYYADSVKGRFTISRDNAKNTVYLQMNSLKPEDTAVYYCYVYVGGSYLGQGTQVTVS", "binding result": "binds"},
      {"binder": "24 (VHH) VHH: QVQLVESGGGLVQAGGSLRLSCAASGFPVSTAEMEWYRQAPGKEREWVAAISSSGTWTYYADSVKGRFTISRDNAKNTVYLQMNSLKPEDTAVYYCYVWVGSSYLGQGTQVTVS", "binding result": "binds"},
      {"binder": "Sybody 16 (VHH) VHH: QVQLVESGGGLVRAGGSLRLSCAASGFPVASQEMTWYRQAPGKEREWVAAISSSGRQTEYADSVKGRFTISRDNAKNTVYLQMNSLKPEDTAVYYCYVYVGGSYIGQGTQVTVS", "binding result": "binds"},
      {"binder": "30 (VHH) VHH: QVQLVESGGGLVQAGGSLRLSCAASGFPVWYKEMEWYRQAPGKEREWVAAITSAGHHTYYADSVKGRFTISRDNAKNTVYLQMNSLKPEDTAVYYCYVYVGESYIGQGTQVTVS", "binding result": "binds"},
      {"binder": "Sybody 7 (VHH) VHH: QVQLVESGGGLVQAGGSLRLSCAASGFPVNAEEMEWYRQAPGKEREWVAAISSSGDWTYYADSVKGRFTISRDNAKNTVYLQMNSLKPEDTAVYYCLVYVGSTYIGQGTQVTVS", "binding result": "binds"},
      {"binder": "28 (VHH) VHH: QVQLVESGGGLVQAGGSLRLSCAASGFPVYSAEMEWYRQAPGKEREWVAAISSYGTNTYYADSVKGRFTISRDNAKNTVYLQMNSLKPEDTAVYYCYVYVGSSYIGQGTQVTVS", "binding result": "binds"},
      {"binder": "Sybody 14 (VHH) VHH: QVQLVESGGGLVQAGGSLRLSCAASGFPVATAEMVWYRQAPGKEREWVAAIMSAGQETEYADSVKGRFTISRDNAKNTVYLQMNSLKPEDTAVYYCYVWVGKSYIGQGTQVTVS", "binding result": "binds"},
      {"binder": "21 (VHH) VHH: QVQLVESGGGLVQAGGSLRLSCAASGFPVKESEMTWYRQARGKEREWVAAINSHGMTTHYADSVKGRFTISRDNAKNTVYLQMNSLKPEDTAVYYCYVYVGGSYIGQGTQVTVS", "binding result": "binds"},
      {"binder": "Sybody 4 (VHH) VHH: QVQLVESGGGLVQAGGSLRLSCAASGFPVNGFNMEWYRQAPGKEREWVAAITSEGNYTYYADSVKGRFTISRDNAKNTVYLQMNSLKPEDTAVYYCYVYVGQSYIGQGTQVTVS", "binding result": "binds"},
      {"binder": "33 (VHH) VHH: QVQLVESGGGLVQAGGSLRLSCAASGFPVKTAEMEWYRQAPGKEREWVAAISSTGKSTFYADSVKGRFTISRDNAKNTVYLQMNSLKPEDTAVYYCHVYVGRTYIGQGTQVTVS", "binding result": "binds"},
      {"binder": "18 (VHH) VHH: QVQLVESGGGLVQAGGSLRLSCAASGFPVDYKSMWWYRQAPGKEREWVAAIDSAGDTTTYADSVKGRFTISRDNAKNTVYLQMNSLKPEDTAVYYCTVWVGTTYTGQGTQVTVS", "binding result": "binds"},
      {"binder": "32 (VHH) VHH: QVQLVESGGGLVQAGGSLRLSCAASGFPVAHKSMWWYRQAPGKEREWVAAIESTGDTTRYADSVKGRFTISRDNAKNTVYLQMNSLKPEDTAVYYCVVWVGEVYRGQGTQVTVS", "binding result": "binds"}
    ]}
  ]
}
